# Results: the supplement of paper PMC9170038
# System: K4 kissing-loop RNA reporter
# Assay: apparent KD of K4 kissing-loop reporter; higher = weaker reporter binding
# Settings: Eterna round: R107
# Experimental: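 RNA-MaP round R107: designed RNA switches with theophylline, tryptophan, arginine or FMN aptamers are transcribed on-chip within common flanks. They are titrated with a labelled K4 kissing-loop RNA reporter in RNA-MaP buffer (100 mM Tris pH 7.5, 80 mM KCl, 4 mM MgCl2), without ligand or with the indicated ligand. Median apparent KD per design.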
# [1] = input ligand: theophylline 20 uM
# [2] = input ligand: tryptophan 2.4 mM
# 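Further: bound reporter read as fluorescence of individual clusters on recovered sequencing chips by microscopy, with normalized cluster intensities fitted with a binding model.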
Sequence,apparent KD of K4 kissing-loop reporter (input ligand: FMN 200 uM),apparent KD of K4 kissing-loop reporter (input ligand: arginine 13.2 mM),apparent KD of K4 kissing-loop reporter (input ligand: none),apparent KD of K4 kissing-loop reporter [1],apparent KD of K4 kissing-loop reporter [2]
AGUACAAUGGCGGCCGCCACUCAACGCAGAUCAAAGAUCUGCAUUCACUCAGUGAUGUUGAGUGAGAGGACCGGGCCUUUGUACA [Omei KL Tryp B SS B v1],701 nM,581 nM,637 nM,580 nM,189 nM
AGUACGGACGCGGCCGCCACUCAGAAGAAGACGGUAGUGAUGUUACUGAUGGUGAGAACAAUAAAGAGGACCGGGUGUCGUGCAA [#06 K4 Tryptophan B Same State],324 nM,464 nM,523 nM,370 nM,304 nM
AGUAGAGCAUCAGAUACCAGACUGAACUGAUGGUAAGGAGUGAUGUUCCUUAAUCAGCUAGUCCCUUGGCAGCUGAUAAUAGUCA [Theo B SS t3],251 nM,253 nM,268 nM,183 nM,222 nM
AGUCCACUCUAAAGAGUGGACCUAAGGGAUACCAGUGAUGUUGGUCACCCUUGGCAGCCCGCUGUCAUCGAUAAAGAUGGCAGUA,125 nM,107 nM,112 nM,121 nM,117 nM
AGUCCACUCUAAAGAGUGGACCUAAGGGAUACCAGUGAUGUUGGUCACCCUUGGCAGCCCUCUGUCAUCGAUAAAGAUGGCAGAA,142 nM,110 nM,114 nM,112 nM,108 nM
AGUGAAGUUAGUGAUGUGUGAGUUUGGGAAGGAGCGCCGAGGAAGGCAGGUAGGUCGCCCAGUGAUGUUGGUGUAAGGAUGAGAG [whbob_Ex_Arginine_A_2t123],451 nM,332 nM,311 nM,262 nM,303 nM
AGUGAUAUAUGAGGAUAUGGGUUUGUUAAUGAGUUUGUUUUAGUGUUGUUUGGUUAGUGAUGUUAUUUAGAAGGCGUGAGUGAUG [vxxexmullin],130 nM,80.5 nM,82.4 nM,127 nM,72 nM
AGUGCACUGUCAGGAUAUAUACAGUGAUGUUGUGUAUGUCAGCAAGUCAAAGACUUGCUAUUCUGUGUAGAAGGGACUGUGUACA [Omei KL FMN B Exc A v1],607 nM,203 nM,230 nM,207 nM,221 nM
AGUGGACGUGUCUAGAGUGAUGUUCCGGAUACCAGACACGAAAGUGUCCCUUGGCAGCCGGAGUGAUGUUCUGGCGUUCACUAAA [Omei KL Theo A Exc B v6],647 nM,296 nM,549 nM,459 nM,440 nM
AGUGGACGUGUCUGGAGUGAUGUUCUGGAUACCAGACACGAAAGUGUCCCUUGGCAGCCGGAGUGAUGUUCCGGCGUUCACUAAA [Omei KL Theo A Exc B v5],462 nM,239 nM,402 nM,396 nM,307 nM
AGUGUGCAAAAGCACACUCAGCACAAGGACAAGGAUAUCUACUAAUAGAGAAGGUGUCCUUUCCUUAGUGAUGUUAAGGAGCUGA [Omei KL FMN A SS D v1],238 nM,526 nM,700 nM,624 nM,693 nM
AGUGUUGUAUGACGGUUUGUCACUUAGGAUCAGGAUAUAUAAACAAAUAGAAGGGAUGGCGGAGUGAUGUUCCGCCGGCCGCCAU [FMN A Exl V9],110 nM,101 nM,104 nM,106 nM,94.3 nM
AUAAUUAUGACGGCCGCCACUGAGAGUAGUGAUGUUACUCUUUUCCUUUAGUAAUAAUUUUUUAUCAGGACCGGGUUAUUUGAAU [JR_Nu_ExcTryptoB_Sub027],68.7 nM,67.2 nM,70.2 nM,64.4 nM,83.9 nM
AUAGGCAUAGCCCGAGUGAUGUUCGACGAUACCAGCCUCGAUAGAGGCCCUUGGCAGCGUAAAUGAUCAUGAAGCCAAGGAAUUA [whbob_Ex_Theo_A_th70],360 nM,335 nM,408 nM,394 nM,277 nM
AUAUAAGUCGGAGGAUAUCCAGUGAUGUUAUGUUGUGAUGUUUAGUGAUGUUAGGCAUCAGUGAAGGGAGAAGGCCGUAAGUGAU [APPLE],68.6 nM,53.3 nM,91.1 nM,89.2 nM,78.9 nM
AUAUCGGUUGAGAGUGAUGUUCCUUGUGUUCGAGGACCGGUACGGCCGCCACUCGGGUAGAAAAUAAAAGAUGUGUUUGAUUUUU [BDazzled - #14 SS Tryptophan A],243 nM,91.5 nM,203 nM,402 nM,221 nM
AUAUGCUUAGCGGCCGCCACUCCAAUUGGCCGAAAGGCCUGAUACCGAGUGAUGUUCGGUUGGAGGAGGACCGGGCUAGGCGUAU [#2 Exclusion - Tryptophan B Attempt #1 (HarryS)],168 nM,139 nM,169 nM,149 nM,141 nM
AUCCGGAGUGCGGCCGCCACUAUCGGAUAGAGUGAUGUUCUAUCCGGCCUUAAAGGCGCGAACGAUAGGACCGGGCACUCUAAAU [Quatinti],121 nM,124 nM,136 nM,128 nM,122 nM
AUGCUUCAGUAAGGAUAUGGAGGCAGAGUGAAGAUUGUCGUGUAACCGAGUUAAGUGAUGUUUGAUCCAGAAGGUACAUGCGUGU [theeternabot_exclusion_KL_FMN_B_15],926 nM,561 nM,885 nM,379 nM,605 nM
AUGUAUGAAUUAGGAUAUCGUGAGCUUUGCAUAUAUAUGAUAAAUGGAUAUGUCGUAGUGAUGUUACGAGAAGGAGUGUGGAGUA [KL-XFMN-B3],52.4 nM,55.7 nM,43.9 nM,65.8 nM,37.4 nM
AUGUCGUUAUAGUGAGUGAUGUUCACUGUGCGAGGACCGGUACGGCCGCCACUCGAGAGUGGUGGACACUGAGUCACUCUGACAC [Tryp A Ex t2],124 nM,123 nM,130 nM,111 nM,283 nM
AUGUCUAAUACGGCCGCCACUCGAGCAGUGAUGUUGCUCAGUAAUGGUCAUCGUCGUACAUGCCCGAGGACCGGGUAUUGAUUUG [Remain],147 nM,122 nM,140 nM,145 nM,175 nM

Sequence,apparent KD of K4 kissing-loop reporter (input ligand: FMN 200 uM),apparent KD of K4 kissing-loop reporter (input ligand: arginine 13.2 mM),apparent KD of K4 kissing-loop reporter (input ligand: none),apparent KD of K4 kissing-loop reporter [1],apparent KD of K4 kissing-loop reporter [2]
AUUAAGAUAUGAGUGAUGUUUAUGUCCGAAGGAGCGUGCGAAAGUACAGGUAGGUCGCGGAUGUGAGUGAUGUUUAUGUAAGCGU [KL-XArg-A15 #analogue],109 nM,33.8 nM,97.1 nM,65 nM,83.4 nM
AUUAAUUUCAGAGGAUAUCGUAAUUUUAUUUAAUUUAUUCAUUUGUGCAGUGAUGUUGCUAAUAUUCGAGAAGGCUGAUUUAUAA [whbob_Ex_FMNB__2th223],142 nM,159 nM,70.8 nM,171 nM,65 nM
AUUAAUUUCAGAGGAUAUGCUUUAUUAUUAUUUUUAAAUAAUAUAAGCAGUGAUGUUGCUUUUUAUGCAGAAGGCUGAUUUAUAA [JR_SSFMNB_Sub016],137 nM,397 nM,383 nM,384 nM,360 nM
AUUAUAUAGGCGGCCGCCACUAGUGAUGUUAGUGACUAUAUGAAAACAUAUAGAAUAAAAUAAUAUAGGACCGGGCCAUAAUAUU [AstrosExTryB#4],498 nM,392 nM,423 nM,425 nM,471 nM
AUUAUAUAGGCGGCCGCCACUAGUGAUGUUAGUGACUUUAUGAAAACAUAAAGAAUAAAAUAAUAUAGGACCGGGCCAUAAUAUU [AstrosExTryB#5],475 nM,369 nM,450 nM,427 nM,432 nM
AUUCGUCUCUGAGGAUAUCAGAGGAGAGUGAUGUUCUCCCAUAGCCCAGUGAUGUUGGAUGCUAUCUGAGAAGGCAGUGGGCGAA [Same State FMN B GF 14],142 nM,203 nM,213 nM,226 nM,186 nM
AUUGCACCUGCGGCCGCCACUCACUCCGGGCUGCUGGCCAGUGAUGUUGGUACGGCUGCCGGUUAGAGGACCGGGCAGGAGCUAA [Esage],106 nM,113 nM,107 nM,106 nM,91.3 nM
AUUUAUUCGUACUACUAGUGAUGUUAGUAACGAGGACCGGUACGGCCGCCACUCGAUUUGGCGAUUUUGUAUUUUUUAUUCUAUA [JR_SSTryptoA_Sub011],324 nM,321 nM,359 nM,328 nM,192 nM
AUUUUGGUUUAGAGUGAUGUUCCUUGUAUUCGAGGACCGGUACGGCCGCCACUCGGAUAGAAAAGAAAAGAAAUGUUUGAUUUUU [BDazzled - #8 SS Tryptophan A],339 nM,219 nM,458 nM,260 nM,298 nM
AUUUUUUUAUCAGGAUAUUAGUGAUGUUUGUUUUUGUUAGUGAUGUUGAUAUUUGUUUUAUGUAUUUAAGAAGGGAUUGAGAUGU [sfsmullin],46.4 nM,15.5 nM,28.2 nM,19.9 nM,42.4 nM
AUUUUUUUGUCAGGAUAUUAGUAUGGUUUUGGUUUGUUAGUGAUGUUGAUAUUUUGUUUAUGUAUUUAAGAAGGGAUUUAGCGGU [gyhhgumullin],404 nM,290 nM,356 nM,447 nM,320 nM
CAAAACGAGUGAUGUUCGGACAACAACGUUAAGGAUAUACUUCUCUGUAGAAGGUAACAGUAUUUAUAUUUCAUCAACGAAAAUG [theeternabot_exclusion_KL_FMN_A_12],213 nM,183 nM,280 nM,248 nM,181 nM
CAAACGGGUUGGCUUGGAGACUGCAGACGCAAGGAUAUCGCGAAGACGAGAAGGUGCGGGCCUGGUAGUGAUGUUACAGUUUGGU [theeternabot_sameState_KL_FMN_A_21],358 nM,326 nM,395 nM,367 nM,254 nM
CAAAUAUGCGGUAGGUUCAAGCGCUGGGAAGGAGCGCAGAUGACUGCAGGUAGGUCGCCCAGUGAUGUUGGGCUUUCCACCUAUG [Esisusa],132 nM,109 nM,107 nM,136 nM,100 nM
CACAAUUAAUUACAGUGAUGUUGUAAUCUGCGAGGACCGGUACGGCCGCCACUCGGGCUUGUAGGGCGCCCACAUUCUUAUACUA [theeternabot_sameState_KL_Trp_A_29],447 nM,348 nM,426 nM,428 nM,360 nM
CACUUACGUAGUGAUGUUACGAUCUCUGAUACCAGACAACUCUAAGUCCCUUGGCAGCAGUCAUUUUGCUUAGUAUUUACUCAAA [JR_ExcTheophyA_Sub016],679 nM,650 nM,791 nM,605 nM,512 nM
CACUUACGUAGUGAUGUUACGAUCUCUGAUACCAGACAACUCUAAGUCCCUUGGCAGCAGUCAUUUUGCUUCAAAUUUACUCAAA [JR_ExcTheophyA_Sub013],691 nM,577 nM,706 nM,661 nM,520 nM
CACUUACGUAGUGAUGUUACGAUCUCUGAUACCAGACAACUCUAAGUCCCUUGGCAGCAGUCAUUUUGCUUUUAAUUUACUCAAA [JR_ExcTheophyA_Sub014],552 nM,572 nM,682 nM,578 nM,425 nM
CAGAACUUGUAUACAGGGCAUGCCAGAGAUACCAGUCAAAUGGAAGGCCCUUGGCAGCUCAGGCGAGUGAUGUUCGCAGGCUGAC [Exclusion Theophylline A GF 19],140 nM,122 nM,116 nM,131 nM,133 nM
CAGAACUUGUAUACAGGGUAUGUAAGAGAUACCAGUCAAAUUAAAGACCCUUGGCAGCUCAGGCGAGUGAUGUUCGCAGGCUAAC [Exclusion Theophylline A GF 18],103 nM,118 nM,115 nM,116 nM,99 nM
CAGCAUCUGAGUGGUAGCCAUUGAGAGAUGCAGGAUAUCUGGAAACAGAGAAGGGCAGUGAGUGAUGUUCACGGCUGGCUUGGUU,154 nM,132 nM,179 nM,133 nM,110 nM
